Source: patent publication US20230399376A1 (BAKER HEART AND DIABETES INSTITUTE, published 2023)

Experiments:
[1] = biological target: GPIIb/IIIa on non-activated (resting) human platelets (human, UniProt P08514 32-1039; P05106 27-788); assay: flow cytometry on human platelets, anti-Penta-His Alexa Fluor 488 detection
Protocol: (§1) Binding of scFv-CD39 to activated human platelets was evaluated by flow cytometry: 0.1 mg/mL of scFv-CD39, 0.2 mg/mL of scFvₘᵤₜ-CD39 (both activity matched), and 0.038 mg/mL of anti-CD41 scFv (equimolar amount of the scFv in scFv-CD39) were tested.
(§2) Citrated blood from volunteers was centrifuged at 180 g for 10 minutes. The platelet-rich plasma (PRP) was collected and stored at 37° C. The remainder (infranatant) was centrifuged at 2500 g for 10 minutes, and its supernatant was collected as platelet-poor plasma (PPP).
(§3) PRP was diluted 1:20 in phosphate-buffered saline (PBS; 100 mg/L calcium chloride, 100 mg/L magnesium chloride). To investigate the binding of scFv-CD39 constructs, the diluted PRP ([…]) was either preincubated with a final concentration of […] ADP or […] of PBS for 15 minutes before addition of the constructs. The binding was then determined via a Penta-His Alexa Fluor-488-conjugated monoclonal antibody (Qiagen). To investigate the ecto-nucleoside triphosphate diphosphohydrolase efficiency, PRP was preincubated with scFv-CD39 constructs before administration of […] ADP. Platelet activation status was measured by a phycoerythrin (PE)-labeled anti-P-selectin antibody (BD Bioscience). Samples were fixed using […] Cellfix (BD Bioscience) and analyzed on a FACS Calibur (BD Bioscience).

[2] = biological target: T1, activated glycoprotein GPIIb/IIIa on ADP-activated human platelets (human, UniProt P08514 32-1039; P05106 27-788); assay: flow cytometry on ADP-activated human platelets, anti-Penta-His Alexa Fluor 488 detection
T1 construct: also called integrin alphaIIbbeta3
Protocol: as §1, §2, §3

T1 sequence (P08514 32-1039 limits assumed, chain 1 of 2): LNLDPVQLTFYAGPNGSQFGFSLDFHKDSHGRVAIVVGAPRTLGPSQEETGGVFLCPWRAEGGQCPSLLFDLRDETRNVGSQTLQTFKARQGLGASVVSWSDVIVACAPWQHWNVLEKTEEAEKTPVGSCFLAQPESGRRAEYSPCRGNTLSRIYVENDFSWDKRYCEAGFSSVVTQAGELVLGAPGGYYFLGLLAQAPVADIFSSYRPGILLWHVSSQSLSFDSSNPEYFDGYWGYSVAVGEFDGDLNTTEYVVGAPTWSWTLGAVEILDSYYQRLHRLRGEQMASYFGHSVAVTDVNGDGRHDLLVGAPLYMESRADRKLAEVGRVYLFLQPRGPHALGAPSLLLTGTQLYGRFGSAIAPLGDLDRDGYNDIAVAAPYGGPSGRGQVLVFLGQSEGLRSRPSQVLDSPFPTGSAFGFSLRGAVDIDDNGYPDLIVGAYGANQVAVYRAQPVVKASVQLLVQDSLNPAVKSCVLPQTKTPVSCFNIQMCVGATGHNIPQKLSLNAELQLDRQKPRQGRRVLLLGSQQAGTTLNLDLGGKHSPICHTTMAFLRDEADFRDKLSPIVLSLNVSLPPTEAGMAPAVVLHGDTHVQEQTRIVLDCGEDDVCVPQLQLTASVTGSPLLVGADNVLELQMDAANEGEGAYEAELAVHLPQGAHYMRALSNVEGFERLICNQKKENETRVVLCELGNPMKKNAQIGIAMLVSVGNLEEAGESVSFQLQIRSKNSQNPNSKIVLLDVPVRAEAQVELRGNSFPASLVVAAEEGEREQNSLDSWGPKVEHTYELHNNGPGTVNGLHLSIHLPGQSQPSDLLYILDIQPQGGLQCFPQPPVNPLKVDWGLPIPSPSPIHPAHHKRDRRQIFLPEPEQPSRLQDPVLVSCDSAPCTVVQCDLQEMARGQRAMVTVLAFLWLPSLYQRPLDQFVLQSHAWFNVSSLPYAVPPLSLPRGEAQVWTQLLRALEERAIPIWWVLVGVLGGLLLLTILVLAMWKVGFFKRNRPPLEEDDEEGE
T1 sequence (P05106 27-788 limits assumed, chain 2 of 2): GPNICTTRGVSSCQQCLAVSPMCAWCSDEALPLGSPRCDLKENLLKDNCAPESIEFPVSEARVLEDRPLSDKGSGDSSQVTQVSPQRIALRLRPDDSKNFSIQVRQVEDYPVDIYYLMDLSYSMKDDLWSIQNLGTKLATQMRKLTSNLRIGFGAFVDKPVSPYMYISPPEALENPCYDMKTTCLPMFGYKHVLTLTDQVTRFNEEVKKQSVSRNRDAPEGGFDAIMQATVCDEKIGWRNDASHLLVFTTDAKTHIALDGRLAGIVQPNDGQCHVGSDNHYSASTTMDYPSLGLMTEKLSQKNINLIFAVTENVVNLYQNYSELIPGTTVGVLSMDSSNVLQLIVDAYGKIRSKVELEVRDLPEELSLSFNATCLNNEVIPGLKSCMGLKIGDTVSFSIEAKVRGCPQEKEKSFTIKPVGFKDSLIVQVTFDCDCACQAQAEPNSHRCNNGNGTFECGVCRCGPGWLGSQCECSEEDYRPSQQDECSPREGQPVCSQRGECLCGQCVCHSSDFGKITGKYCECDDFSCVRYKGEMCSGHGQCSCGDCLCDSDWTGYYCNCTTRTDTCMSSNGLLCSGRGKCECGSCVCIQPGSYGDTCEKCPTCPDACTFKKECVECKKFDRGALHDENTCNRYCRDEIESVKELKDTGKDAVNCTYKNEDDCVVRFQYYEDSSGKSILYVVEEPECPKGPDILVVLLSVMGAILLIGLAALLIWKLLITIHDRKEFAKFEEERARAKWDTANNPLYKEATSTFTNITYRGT
GPIIb/IIIa on non-activated (resting) human platelets, sequence (P08514 32-1039 limits assumed, chain 1 of 2): as the sequence (P08514 32-1039 limits assumed, chain 1 of 2) above
GPIIb/IIIa on non-activated (resting) human platelets, sequence (P05106 27-788 limits assumed, chain 2 of 2): as the sequence (P05106 27-788 limits assumed, chain 2 of 2) above

B1: scFvmut-CD39 (scFv)
chain: HHHHHHHHRRAVRSLVPSSDPLQCGGILAEVQLVQSGAEVNKPGASVKVSCKASGYTFTGYYMHWVRQAPGQGLEWMGWINPNSGGTNYAQKFQGWVTMTRDTSISTAYMELSRLRSDDTAVYYCARGRALYNANDRSPNWFDPWGQGTLVTVSSGSASAPTLKLEEGEFSEARVQAVLTQPPSVSVAPGQTARITCGGNNIGSKSVQWYQQKPGQAPVLVVYDDSDRPSGIPERFSGSNSGNMATLTISRVEAGDEADYYCQVWDSSSDHVVFGGGTKLTVLGGKPIPNPLLGLDSTLPETGGLEEAAATQNKALPENVKYGIVLDAGSSHTSLYIYKWPAEKENDTGVVHQVEECRVKGPGISKFVQKVNEIGIYLTDCMERAREVIPRSQHQETPVYLGATAGMRLLRMESEELADRVLDVVERSLSNYPFDFQGARIITGQEEGAYGWITINYLLGKFSQKTRWFSIVPYETNNQETFGALDLGGASTQVTFVPQNQTIESPDNALQFRLYGKDYNVYTHSFLCYGKDQALWQKLAKDIQVASNEILRDPCFHPGYKKVVNVSDLYKTPCTKRFEMTLPFQQFEIQGIGNYQQCHQSILELFNTSYCPYSQCAFNGIFLPPLQGDFGAFSAFYFVMKFLNLTSEKVSQEKVTEMMKKFCAQPWEEIKTSYAGVKEKYLSEYCFSGTYILSLLLQGYHFTADSWEHIHFIGKIQGSDAGWTLGYMLNLTNMIPAEQPLSTPLSHSTTRGGPEQKLISEEDLNSAVDHHHHHH
notes: Non-targeting control construct; also called non-targ-CD39; Non-targCD39; not shown: 6xHis-tag used for detection
[1]
  binding result: no binding (tested: 0.2 mg/mL)
[2]
  binding result: no binding (tested: 0.2 mg/mL)
